Data on 94 variants can be found in the supplement of paper PMC10567573.

Sequences and labels used below:
B1: SLC2A12 (parent)
chain: CLLGLGSLVLILSLSYTVLIVGRI
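Note: lentivirally expressed fusions sorted by FACS into six bins by GFP to DsRed ratio, PSI derived from sequencing read proportions per bin multiplied by bin number.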

In the data set the parent is B1. Kind of data set: protein stability index of a GFP-peptide fusion (GPS, HEK-293T) (PSI 1-6); higher = more stable. The following applies: c terminus: a fixed tail appended.
With CLLGLGSLVLILSLIYTVLIVGRI, the protein stability index worked out at 3.21.
Then CLLGLGSLVLILSLDYTVLIVGRI, with 2.87; and CLLGLGSLKLILSLSYTVLIVGRI, with 1.27; and CLLGLGSLDLILSLSYTVLIVGRI, with 3.2.
The figure for CLLGLGSLSLILSLSYTVLIVGRI is 3.94.
As to CLLGLGSLYLILSLSYTVLIVGRI, the protein stability index came to 2.23.
Then CLLGLGSLHLILSLSYTVLIVGRI, with 2.07; and CLLGLGSLNLILSLSYTVLIVGRI, with 1.9.
The figure for CLLGLGSLFLILSLSYTVLIVGRI is 3.79.
Then CLLGLGSLTLILSLSYTVLIVGRI, with 2.25; and CLLGLGSLVLIYSLSYTVLIVGRI, with 3.84.
On to CLLGLGSLVLIESLSYTVLIVGRI, for which the protein stability index is 3.91.
With CLLGLGSLVLIPSLSYTVLIVGRI, the protein stability index came to 2.04.
Regarding CLLGLGSLVLIQSLSYTVLIVGRI, the protein stability index came out at 3.11.
Take CLLGLGSLVLIVSLSYTVLIVGRI: the protein stability index came to 3.35.
Take CLLGLGSLVLITSLSYTVLIVGRI: the protein stability index was 2.44.
In the case of CLLGLGSLVLINSLSYTVLIVGRI, the protein stability index was 2.87.
Then CLLGLGSLVLIWSLSYTVLIVGRI, with 3.73; and CLLGLGSLVLISSLSYTVLIVGRI, with 1.92; and CLLGLGSLVLIISLSYTVLIVGRI, with 1.58.
As to CLLGLGSLVLILSLSYTVLIVVRI, the protein stability index is 3.25.
Then CLLGLGSLVLILSLSYTVLIVFRI, with 3.4; and CLLGLGSLVLILSLSYTVLIVERI, with 3.84; and CLLGLGSLVLILSLSYTVLIVTRI, with 4.65.
The figure for CLLGLGSLVLILSLSYTVLIVHRI is 2.75; for CLLGLGSLVLILSLSYTVLIVQRI it is 3.23; for CLLGLGSLVLILSLSYTVLIVSRI it is 2.04.
CLLGLGSLVLILSLSYTVLIVKRI: the protein stability index came out at 2.08.
For the variant CLLGLGSLVNILSLSYTVLIVGRI, the protein stability index came out at 2.3.
The figure for CLLGLGSLVWILSLSYTVLIVGRI is 3.03.
The figure for CLLGLGSLVTILSLSYTVLIVGRI is 3.09.
The figure for CLLGLGSLVSILSLSYTVLIVGRI is 2.96.
In the case of CLLGLGSLVKILSLSYTVLIVGRI, the protein stability index came to 2.9.
The figure for CLLGLGSLVCILSLSYTVLIVGRI is 3.02; for CLLGLGKLVLILSLSYTVLIVGRI it is 2.01.
As to CLLGLGRLVLILSLSYTVLIVGRI, the protein stability index turned out to be 1.8.
Regarding CLLGLGHLVLILSLSYTVLIVGRI, the protein stability index is 1.81.
The figure for CLLGLGPLVLILSLSYTVLIVGRI is 2.76.
The figure for CLLGLGALVLILSLSYTVLIVGRI is 3.86.
Regarding CLLGLGNLVLILSLSYTVLIVGRI, the protein stability index was found to be 2.72.
Then CLLGLGTLVLILSLSYTVLIVGRI, with 2.51.
Regarding CLLGLGILVLILSLSYTVLIVGRI, the protein stability index is 2.45.
The figure for CLLGLGSLVLILRLSYTVLIVGRI is 1.87; for CLLGLGSLVLILNLSYTVLIVGRI it is 1.87.
Consider CLLGLGSLVLILLLSYTVLIVGRI, for which the protein stability index came out at 2.
Then CLLGLGSLVLILFLSYTVLIVGRI, with 3.31; and CLLGLGSLVLILILSYTVLIVGRI, with 3.33.
The figure for CLLGLGSLVLILDLSYTVLIVGRI is 2.82; for CLLGLGSLVLILSLSPTVLIVGRI it is 3.53; for CLLGLGSLVLILSLSMTVLIVGRI it is 3.02.
For CLLGLGSLVLILSLSWTVLIVGRI, the protein stability index came to 1.91.
As for CLLGLGSLVLILSLSYTKLIVGRI, the protein stability index turned out to be 2.98.
The figure for CLLGLGSLVLILSLSYTHLIVGRI is 2.43.
Then CLLGLGSLVLILSLSYTFLIVGRI, with 1.87; and CLLGLGSLVLILSLSYTTLIVGRI, with 2.93; and CLLGLGSLVLILSLSYTLLIVGRI, with 2.48.
As for CLLGLGSLVLILSLSYTSLIVGRI, the protein stability index came out at 3.07.
For the variant CLLGLGSLVLILSLSYTMLIVGRI, the protein stability index turned out to be 4.12.
Then CLLGLGSLVLILSLSYTVLICGRI, with 3.06; and CLLGLGSLVLILSLSYTVLIFGRI, with 4.2.
CLLGLGSLVLILSLSYTVLILGRI: the protein stability index was found to be 2.77.
The figure for CLLGLGSLVLILSLSYTVLIEGRI is 1.97; for CLLGLGSLVLILSLSYTVLIIGRI it is 3.74.
Then CLLGLGSLVLILSLSYTVLIPGRI, with 3.7; and CLLGLGSLVLILSLSYTVLIYGRI, with 3.38.
Then CLLGLGSIVLILSLSYTVLIVGRI, with 3.
On to CLLGLGSPVLILSLSYTVLIVGRI, for which the protein stability index is 2.7.
As to CLLGLGSDVLILSLSYTVLIVGRI, the protein stability index was 4.51.
Then CLLGLGSHVLILSLSYTVLIVGRI, with 2.87; and CLLGLGSLVLILSLSYTVLIVGRS, with 4.47; and CLLGLGSLVLILSLSYTVLIVGRF, with 2.09.
Take CLLGLGSLVLILSLSYTVLIVGRW: the protein stability index turned out to be 3.02.
Then CLLGLGSLVLILSLSYTVLIVGRR, with 4.47.
As to CLLGLGSLVLILSLSYTVLIVGRK, the protein stability index came to 2.5.
Then CLLGLGSLVLILSLSYTVLIVGRV, with 2.79; and CLLGLGSLVLILSLSYTVLIVGRH, with 4.96.
The figure for CLLGLGSLVLILSLSYTVLIVGRL is 2.31; for CLLGLGSLVLILSVSYTVLIVGRI it is 3.61.
CLLGLGSLVLILSESYTVLIVGRI: the protein stability index is 2.46.
Then CLLGLGSLVLILSHSYTVLIVGRI, with 3.01; and CLLGLGSLVLILSDSYTVLIVGRI, with 2.03; and CLLGLGSLVLILSFSYTVLIVGRI, with 2.16.
Take CLLGLGSLVLILSLSYNVLIVGRI: the protein stability index came out at 2.91.
On to CLLGLGSLVLILSLSYFVLIVGRI, for which the protein stability index came to 3.38.
With CLLGLGSLVLILSLSYEVLIVGRI, the protein stability index was 3.32.
CLLGLGSLVLILSLSYYVLIVGRI: the protein stability index is 2.3.
On to CLLGYGSLVLILSLSYTVLIVGRI, for which the protein stability index was 3.19.
Consider CLLGWGSLVLILSLSYTVLIVGRI, for which the protein stability index was found to be 2.12.
CLLGRGSLVLILSLSYTVLIVGRI: the protein stability index was determined as 2.84.
As to CLLGHGSLVLILSLSYTVLIVGRI, the protein stability index was determined as 2.6.
With CLLGIGSLVLILSLSYTVLIVGRI, the protein stability index amounted to 3.48.
As for CLLGGGSLVLILSLSYTVLIVGRI, the protein stability index came out at 3.97.
Then CLLGQGSLVLILSLSYTVLIVGRI, with 2.45; and CLLGMGSLVLILSLSYTVLIVGRI, with 3.94.
